The results in this text go back to US6548634B1, “Synthetic peptides having FGF receptor affinity” (priority 1998, dated 2003).

Where a SMILES comes first, the peptide text is derived from it. Where no end group is shown, it is not given here.

The test system of one test is Swiss 3T3 fibroblasts. Kind of test: BrdU incorporation (mitogenesis) in Swiss 3T3 fibroblasts. Format: cell-based. The conditions noted are these: for mitogenic activity in Swiss 3T3: BrdU incorporation. Here is the method: 6×Histidine-tagged Clone 19-jun protein (FIG. 1A) was expressed in bacteria and purified by metal affinity chromatography as described in Example 5. Assay of BrdU incorporation, a measure of entry of cells into S-phase and therefore of mitogenesis, was performed according to manufacturers instructions (Cell proliferation ELISA, BrdU, Cat. No. 1-647-229, Boehringer-Mannheim, Indianapolis, Ind.). Briefly, 1×10^4 Swiss 3T3 cells per well were plated on gelatin-coated 96-well microtiter plates in complete media (DMEM, 10% FCS, antibiotics), incubated 24 hours, and the media changed to quiescent media for an addition 24 hours (DMEM containing 0.5 mg/ml bovine serum albumin, 1 μg/ml insulin, 5 μg/ml transferrin, antibiotics). The cells were then treated with bFGF or Clone 19-jun protein at the indicated concentrations in the presence of 15 U/ml heparin. 18 hours later, BrdU was added, the cells incubated an additional 4 hours, and assayed as described. […] Heparin alone had no effect, nor did a control protein expressed and purified in the same manner in which the C19 sequence was deleted.
Background: Incorporation of labelled thymidine or its analogues reports DNA synthesis.

The next test addresses T1, FGFR1c ECD (Homo sapiens, UniProt P11362).
T1 construct: human FGFR Ic (residues 1-377); made in house
T1 sequence (P11362 22-377): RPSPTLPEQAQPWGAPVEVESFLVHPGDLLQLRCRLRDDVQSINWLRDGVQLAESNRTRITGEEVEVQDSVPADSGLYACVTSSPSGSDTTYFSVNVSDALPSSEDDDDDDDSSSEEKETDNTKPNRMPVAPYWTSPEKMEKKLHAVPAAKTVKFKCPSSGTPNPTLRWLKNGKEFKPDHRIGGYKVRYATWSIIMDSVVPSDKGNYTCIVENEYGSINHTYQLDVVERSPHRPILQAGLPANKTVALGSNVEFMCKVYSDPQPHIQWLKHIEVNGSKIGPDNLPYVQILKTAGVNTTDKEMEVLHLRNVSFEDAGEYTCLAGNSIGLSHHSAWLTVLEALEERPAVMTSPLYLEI
The test can be described thus: BIAcore real-time kinetic analysis on immobilized FGFR1c ECD. The test is classed as binding. The following applies: absence of heparin. Here is the method: Apparent affinities for immobilized FGFR1c ECD were determined using BIAcore real-time kinetic analysis in the absence of heparin.
Protein representing the linker segments and c-jun leucine zipper without the C19 sequence (FIG. 2) was expressed, purified, and characterized as for C19jun. C19 peptide with an intrapeptide disulfide bond was synthesized, purified by HPLC, and characterized by mass spectroscopy. C19junΔhep protein was prepared by changing human c-jun residues Arg276, Arg279, Lys285, and Lys288 in the leucine zipper domain to glutamines. Expression, purification, and characterization was as for C19jun. […] The extracellular ligand-binding domain of human FGFR Ic (residues 1-377) and human erythropoietin receptor (residues 1-250) were fused to the Fc region of human IgG1, expressed in baculovirus and purified by protein A affinity chromatography. […] PDGF receptor Fc fusion protein was from R&D Systems.
In general terms: Surface plasmon resonance follows binding to a sensor surface in real time, without labels.

A short description of test [1]: Binding to heparin agarose beads.

As to `CC[C@H](C)[C@@H]1NC(=O)[C@H](CCCCN)NC(=O)[C@H]([C@@H](C)O)NC(=O)[C@H](Cc2c[nH]c3ccccc23)NC(=O)[C@H](C)NC(=O)[C@H](CO)NC(=O)[C@H](CC(=O)O)NC(=O)[C@H]([C@@H](C)O)NC(=O)[C@H](Cc2ccccc2)NC(=O)[C@H](C(C)C)NC(=O)[C@H](CC(C)C)NC(=O)[C@H](C(C)C)NC(=O)[C@@H](NC(=O)[C@H](Cc2ccc(O)cc2)NC(=O)[C@H](CC(=O)O)NC(=O)[C@H](CC(=O)O)NC(=O)CNC(=O)[C@H](CO)NC(=O)[C@H](CCC(=O)O)NC(=O)[C@H](C)N)CSSC[C@@H](C(=O)N[C@@H](CC(=O)O)C(=O)N[C@@H](Cc2c[nH]c3ccccc23)C(=O)N[C@@H](CO)C(=O)N[C@@H](Cc2c[nH]cn2)C(=O)N[C@@H](Cc2ccccc2)C(=O)N[C@@H](CCCNC(=N)N)C(=O)N[C@@H](CC(N)=O)C(=O)O)NC1=O` [C19 synthetic peptide] (HELM PEPTIDE1{A.E.S.G.D.D.Y.C.V.L.V.F.T.D.S.A.W.T.K.I.C.D.W.S.H.F.R.N}$PEPTIDE1,PEPTIDE1,8:R3-21:R3$$$V2.0; N-terminus and C-terminus assumed), the “mitogenic activity in Swiss 3T3” value in the test with Swiss 3T3 fibroblasts was “did not induce mitogenesis even at high concentrations”.
Consider “jun leucine zipper only: Protein representing the linker segments and c-jun leucine zipper without the C19 sequence (RIARLEEKVKTLKAQNSELASTANMLREQVAQLKQKVMN; not fully specified) [reference compound]”, for which, in the test with FGFR1c ECD (BIAcore, approximate, read-out: KD, apparent affinity for immobilized FGFR1c ECD), the Kd is over 10000 nM. Besides, the “mitogenic activity in Swiss 3T3” value is listed as “abrogated mitogenic activity” in the test with Swiss 3T3 fibroblasts (listed as Deletion of the C19 sequence from the fusion protein) and “had no effect” in the test on Swiss 3T3 fibroblasts (listed as control protein).

B1: F12jun: F12 sequence fused to GGGS linker, c-jun leucine zipper flanked by cysteines, polyhistidine tag; SEQ ID NO:43 (protein)
chain: MATLVCDTVLEGQWRVCNWEGPGGGSGGGSGGGSGGGSGGGSRCGGRIARLEEKVKTLKAQNSELASTANMLREQVAQLKQKVMNGGCGGSGGHHHHHH
On to B1, for which the EC50 in the test with Swiss 3T3 fibroblasts (Swiss 3T3, 18 hrs, 15 U/ml heparin, FIG. 6, read-out: EC50 mitogenic activity (BrdU incorporation)) was about 1.7 nM.

B2: C19junΔhep: C19jun with c-jun residues Arg276, Arg279, Lys285, Lys288 in the leucine zipper changed to glutamines (protein)
chain: MAESGDDYCVLVFTDSAWTKICDWSHFRNGPGGGSGGGSGGGSGGGSGGGSRCGGQIAQLEEKVQTLQAQNSELASTANMLREQVAQLKQKVMNHGGCGGSGGHHHHHH
As for B2, the “binding to immobilized FGFR ECD” value with FGFR1c ECD (in vitro) is recorded as “same apparent affinity as C19jun”. Moreover, the “mitogenic activity in Swiss 3T3” value in the test on Swiss 3T3 fibroblasts was “inactive”. Besides, the heparin binding entry in test [1] is reported as “very low affinity for heparin”.
